Data published in the RNAGym collection of RNA variant scans (doi:10.1093/molbev/msab373).

B1: Azoarcus group I ribozyme (parent)
chain: GUGCCUUGCGCCGGGAAACCACGCAAGGGAUGGUGUCAAAUUCGGCGAAACCUAAGCGCCCGCCCGGGCGUAUGGCAACGCCGAGCCAAGCUUCGGCGCCUGCGCCGAUGAAGGUGUAGAGACUAGACGGCACCCACCUAAGGCAAACGCUAUGGUGAAGGCAUAGUCCAGGGAGUGGCGAAAGUCACACAAACCGG

Variants of: B1
Assay: reverse-splicing fitness (ratio to wild type); higher = more active; in vitro selection; Mg2+ level not given
Procedure, shortened: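 An in vitro group I ribozyme library with randomized positions was T7-transcribed and gel-purified. In triplicate, 10 pmol RNA in EPPS pH 7.5 was reacted with 50 pmoles of a 30-nt RNA substrate for 1 h at 37 °C across several added MgCl2 levels (1–48 mM), then stopped with EDTA. Products were reverse transcribed from a substrate-complementary primer, PCR-amplified and sequenced (HiSeq 4000). Fitness is a variant's read proportion after selection over that before, normalised to wild type.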

| Variant | reverse-splicing fitness |
| --- | --- |
| C82A A111C A120U A145G C150U C169U | 0.00603 |
| C82A A111C A120U A145G C150U C169A | 0.00691 |
| C82A A111C A120U A145G C150U C169G | 0.0065 |
| C82A A111C A120U A145U C150A C169G U176A | 0.003 |
| C82A A111C A120U A145U C150A C169G U176C | 0.00377 |
| C82A A111C A120U A145U C150A C169G U176G | 0.00247 |
| C82A A111C A120G A145G C150G U176G | 0.00573 |
| C82A A111C A120G A145G C150G U176A | 0.00663 |
| C82A A111C A120G A145G C150G U176C | 0.0111 |
| C82A A111C A120U A145C C150A | 0.00399 |
| C82A A111C A120U A145C C150U | 0.00922 |
| C82A A111C A120U A145C C150G | 0.00708 |
| C82A A111C A120G A145U C169U U176G | 0.00449 |
| C82A A111C A120G A145U C169U U176A | 0.0132 |
| C82A A111C A120G A145U C169U U176C | 0.0118 |
| C82A A111C A120G A145U C150U U176A | 0.0121 |
| C82A A111C A120G A145U C150U U176G | 0.00527 |
| C82A A111C A120G A145U C150U U176C | 0.0188 |
| C82A A111C A120G C150U C169A U176G | 0.00621 |
| C82A A111C A120G C150U C169A U176C | 0.0139 |
| C82A A111C A120G C150U C169A U176A | 0.013 |

| Variant | reverse-splicing fitness |
| --- | --- |
| C82A A111C A120U A145C C150G C169U U176G | 0.00285 |
| C82A A111C A120U A145C C150G C169U U176A | 0.00398 |
| C82A A111C A120U A145C C150G C169U U176C | 0.00347 |
| C82A A111C A120U A145G C150A U176A | 0.00754 |
| C82A A111C A120U A145G C150A U176C | 0.00799 |
| C82A A111C A120U A145G C150A U176G | 0.00381 |
| C82A A111C A120G A145G C169U U176G | 0.00473 |
| C82A A111C A120G A145G C169U U176A | 0.0159 |
| C82A A111C A120G A145G C169U U176C | 0.0157 |
| C82A A111C A120U | 0.0221 |
| C82A A111C A120U A145G C150A C169A U176C | 0.00537 |
| C82A A111C A120U A145G C150A C169A U176G | 0.00349 |
| C82A A111C A120U A145G C150A C169A U176A | 0.00894 |
| C82A A111C A120G A145G U176G | 0.00581 |
| C82A A111C A120G A145G U176C | 0.0226 |
| C82A A111C A120G A145G U176A | 0.0153 |
| C82A A111C A120U A145C C150A C169U | 0.00355 |
| C82A A111C A120U A145C C150A C169G | 0.00308 |
| C82A A111C A120U A145C C150A C169A | 0.00282 |
| C82A A111C A120U A145C C150U C169A U176G | 0.00233 |
| C82A A111C A120U A145C C150U C169A U176C | 0.00378 |

| Variant | reverse-splicing fitness |
| --- | --- |
| C82A A111C A120U A145C C150U C169A U176A | 0.00309 |
| C82A A111C A120U A145G C150A C169G | 0.00577 |
| C82A A111C A120U A145G C150A C169A | 0.00708 |
| C82A A111C A120U A145G C150A C169U | 0.00559 |
| C82A A111C A120U A145G C150G U176C | 0.00851 |
| C82A A111C A120U A145G C150G U176G | 0.00449 |
| C82A A111C A120U A145G C150G U176A | 0.00763 |
| C82A A111C A120G C150G C169G U176A | 0.00664 |
| C82A A111C A120G C150G C169G U176G | 0.00538 |
| C82A A111C A120G C150G C169G U176C | 0.00493 |
| C82A A111C A120G A145G C169G U176A | 0.0211 |
| C82A A111C A120G A145G C169G U176C | 0.0266 |
| C82A A111C A120G A145G C169G U176G | 0.00491 |
| C82A A111C A120G A145G C150U | 0.0128 |
| C82A A111C A120G A145G C150U C169G U176G | 0.00582 |
| C82A A111C A120G A145G C150U C169G U176C | 0.0182 |
| C82A A111C A120G A145G C150U C169G U176A | 0.0123 |
| C82A A111C A120U A145C U176C | 0.00818 |
| C82A A111C A120U A145C U176A | 0.00599 |
| C82A A111C A120U A145C U176G | 0.00266 |
| C82A A111C A120G A145G C150U C169A U176A | 0.016 |

| Variant | reverse-splicing fitness |
| --- | --- |
| C82A A111C A120G A145G C150U C169A U176C | 0.0149 |
| C82A A111C A120G A145G C150U C169A U176G | 0.00613 |
| C82A A111C A120U A145C C169U | 0.00399 |
| C82A A111C A120U A145C C169A | 0.00286 |
| C82A A111C A120U A145C C169G | 0.00295 |
| C82A A111C A120G A145G C169A U176C | 0.0288 |
| C82A A111C A120G A145G C169A U176A | 0.0215 |
| C82A A111C A120G A145G C169A U176G | 0.00509 |
| C82A A111C A120G A145U C150U C169U U176C | 0.012 |
| C82A A111C A120G A145U C150U C169U U176A | 0.0153 |
| C82A A111C A120G A145U C150U C169U U176G | 0.00648 |
| C82A A111C A120G A145U C169A U176G | 0.00466 |
| C82A A111C A120G A145U C169A U176C | 0.0104 |
| C82A A111C A120G A145U C169A U176A | 0.00852 |
| C82A A111C A120G C150G C169G | 0.00748 |
| C82A A111C A120G C150G C169U | 0.00833 |
| C82A A111C A120G C150G C169A | 0.0097 |
| C82A A111C A120G A145U C169G U176C | 0.012 |
| C82A A111C A120G A145U C169G U176G | 0.00481 |
| C82A A111C A120G A145U C169G U176A | 0.0102 |
